Starred links: 1 amine or outer side, 2 acyl side, 3 side chain; linkers in the order of their positions; H or OH if unused. Non-standard residues stand in square brackets, D forms with d. No end group written: not given here. *: point of attachment. NMe2F‑APPA = N-methyl-2-amino-5-(2-fluorophenyl)pentanoic acid, CN([C@@H](CCCc1ccccc1F)C(=O)[*:2])[*:1]; AMCB = 2-amino-5-(4-chloro-2-methylphenyl)pentanoic acid, Cc1cc(Cl)ccc1CCC[C@H](N[*:1])C(=O)[*:2]; 2CF3,4F‑APPA = 2-amino-5-(4-fluoro-2-(trifluoromethyl)phenyl)pentanoic acid; 2F,4CF3‑APPA = 2-amino-5-(2-fluoro-4-(trifluoromethyl)phenyl)pentanoic acid; Bip(2'-Et-4'-OMe) = CCc1cc(OC)ccc1-c1ccc(C[C@H](N)C(=O)O)cc1; Leu(5,5,5,5',5',5'-F6) = N[C@@H](CC(C(F)(F)F)C(F)(F)F)C(=O)O; 2Cl‑APPA = 2-amino-5-(2-chlorophenyl)pentanoic acid; 2F‑APPA = 2-amino-5-(2-fluorophenyl)pentanoic acid; αMePhe(2-F) = C[C@](N)(Cc1ccccc1F)C(=O)O; NMeBip(OMe) = N-methylated Bip(OMe); hhPhe = N[C@@H](CCCc1ccccc1)C(=O)O; αMeF = C[C@](N)(Cc1ccccc1)C(=O)O; NMeD = CN[C@@H](CC(=O)O)C(=O)O; aThr = C[C@H](O)[C@H](N)C(=O)O; NMeAPPA = not defined here; CNB = not defined here; Aib = CC(C)(N)C(=O)O; Moc = COC(=O)*
Target: human GLP-1 receptor (human, UniProt P43220 24-463)
Test: cell-based or functional assay

Sequence of human GLP-1 receptor (P43220 24-463): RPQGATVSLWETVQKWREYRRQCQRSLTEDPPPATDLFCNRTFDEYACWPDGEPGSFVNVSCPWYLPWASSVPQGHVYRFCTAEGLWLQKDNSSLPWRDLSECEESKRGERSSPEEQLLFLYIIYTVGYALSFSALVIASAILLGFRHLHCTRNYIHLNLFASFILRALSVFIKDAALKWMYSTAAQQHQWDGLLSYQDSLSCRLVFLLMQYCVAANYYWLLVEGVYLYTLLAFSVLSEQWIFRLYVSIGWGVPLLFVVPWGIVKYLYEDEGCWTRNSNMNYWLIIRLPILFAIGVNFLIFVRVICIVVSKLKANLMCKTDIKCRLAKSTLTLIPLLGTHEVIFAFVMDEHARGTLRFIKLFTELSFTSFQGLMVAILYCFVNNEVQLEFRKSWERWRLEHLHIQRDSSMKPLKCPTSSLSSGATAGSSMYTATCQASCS

Row | cAMP release, % activity, 1 nM | cAMP release, % activity, 10 nM | cAMP release, % activity, 100 nM | cAMP release, % activity, 1 µM | cAMP release, % activity, 10 µM | Binder
1 | 93% | 99% | 99% | 99% | 99% | H[Aib][Leu(5,5,5,5',5',5'-F6)]G[aThr][αMePhe(2-F)][aThr]SD[Bip(2'-Et-4'-OMe)][2F‑APPA] (also: thioamide (C═S) bonds Z9-Z10 and Z10-Z11) [Seq. ID. No. 216: H-Aib-(Hfl)-G-T(allo)-(α-Me-2F-Phe)-T(allo)-SD-(C═S)-Bip(OMe)-(C═S)-(2F-APPA)]
2 | 66% | 97% | 99% | 99% | 99% | H[Aib][CNB]GTFTSD[Bip(2'-Et-4'-OMe)][2CF3,4F‑APPA] (reading uncertain) [Seq. ID. No. 80: H-Aib-(CNB)-GTFTSD-Bip(OMe)-(2CF3, 4F-APPA)]
3 | 41% | 82% | 87% | 95% | 98% | H[Aib][CNB]G[aThr][αMePhe(2-F)][aThr]SD[Bip(2'-Et-4'-OMe)][hhPhe] (reading uncertain; also: reduced (CH2) bond between 10 and 11) [Seq. ID. No. 190: H-Aib-(CNB)-G-T(allo)-(α-Me-2F-Phe)-T(allo)-SD-Bip(OMe)-(CH2)-(APPA)]
4 | 41% | 82% | 87% | 95% | 98% | Ac-H[Aib]QG[aThr][αMePhe(2-F)][aThr]SD[Bip(2'-Et-4'-OMe)][hhPhe] [Seq. ID. No. 101: CH3CO-H-Aib-QG-T(allo)-(α-Me-2F-Phe)-T(allo)-SD-Bip(OMe)-(APPA)]
5 | 40% | 81% | 89% | 96% | 99% | H[Aib][CNB]G[aThr][αMePhe(2-F)][aThr]SD[Bip(2'-Et-4'-OMe)][2F‑APPA] (reading uncertain; also: thioamide bonds between residues 9-10 and 10-11) [Seq. ID. No. 180: H-Aib-(CNB)-G-T(allo)-(α-Me-2F-Phe)-T(allo)-SD-(C═S)-Bip(OMe)-(C═S)-(2F-APPA)]
6 | 86% | 99% | 99% | 99% | 99% | H[Aib]QG[aThr][αMePhe(2-F)][aThr]SD[Bip(2'-Et-4'-OMe)][2F‑APPA] (also: reduced (CH2) bonds Z9-Z10 and Z10-Z11) [Seq. ID. No. 203: H-Aib-QG-T(allo)-(α-Me-2F-Phe)-T(allo)-SD-(CH2)-Bip(OMe)-(CH2)-(2F-APPA)]
7 | 46% | 85% | 90% | 99% | 99% | Ac-H[Aib][Leu(5,5,5,5',5',5'-F6)]GT[αMePhe(2-F)]TSD[Bip(2'-Et-4'-OMe)][hhPhe] [Seq. ID. No. 210: CH3CO-H-Aib-(Hfl)-GT-(α-Me-2F-Phe)-TSD-Bip(OMe)-(APPA)]
8 | 93% | 99% | 99% | 99% | 99% | H[Aib][Leu(5,5,5,5',5',5'-F6)]G[aThr][αMePhe(2-F)][aThr]S[NMeD][NMeBip(OMe)][NMeAPPA] (reading uncertain) [Seq. ID. No. 220: H-Aib-(Hfl)-G-T(allo)-(α-Me-2F-Phe)-T(allo)-S-(NMe)D-((NMe)Bip(OMe))-((NMe)(APPA))]
9 | 82% | 87% | 92% | 99% | 99% | Moc-H[Aib]QG[aThr][αMePhe(2-F)][aThr]SD[Bip(2'-Et-4'-OMe)][hhPhe] (also: reduced (CH2) bonds between 9-10 and 10-11) [Seq. ID. No. 198: CH3OCO-H-Aib-QG-T(allo)-(α-Me-2F-Phe)-T(allo)-SD-(CH2)-Bip(OMe)-(CH2)-(APPA)]
10 | 78% | 99% | 99% | 99% | 99% | H[Aib][CNB]GTFTSD[Bip(2'-Et-4'-OMe)][2Cl‑APPA] (reading uncertain) [Seq. ID. No. 82: H-Aib-(CNB)-GTFTSD-Bip(OMe)-(2Cl-APPA)]
11 | 99% | 99% | 99% | 99% | 99% | HAQGTFTSD[Bip(2'-Et-4'-OMe)][AMCB] [Seq. ID. No. 16: HAQGTFTSD-Bip(OMe)-(AMCB)]
12 | 99% | 99% | 99% | 99% | 99% | H[Aib][Leu(5,5,5,5',5',5'-F6)]GT[αMePhe(2-F)][aThr]SD[Bip(2'-Et-4'-OMe)][2F‑APPA] [Seq. ID. No. 224: H-Aib-(Hfl)-GT-(α-Me-2F-Phe)-T(allo)-SD-Bip(OMe)-(2F-APPA)]
13 | 69% | 98% | 99% | 99% | 99% | H[Aib][CNB]GTFTSD[Bip(2'-Et-4'-OMe)][2F,4CF3‑APPA] (reading uncertain) [Seq. ID. No. 81: H-Aib-(CNB)-GTFTSD-Bip(OMe)-(2F, 4CF3-APPA)]
14 | 39% | 81% | 89% | 96% | 99% | Moc-H[Aib]QGT[αMePhe(2-F)]TSD[Bip(2'-Et-4'-OMe)][2F‑APPA] (also: reduced (CH2) bonds between 9-10 and 10-11) [Seq. ID. No. 196: CH3OCO-H-Aib-QGT-(α-Me-2F-Phe)-TSD-(CH2)-BiP(OMe)-(CH2)-(2F-APPA)]
15 | 51% | 86% | 91% | 99% | 99% | Moc-H[Aib]QG[aThr][αMePhe(2-F)][aThr]SD[NMeBip(OMe)][NMe2F‑APPA] [Seq. ID. No. 140: CH3OCO-H-Aib-QG-T(allo)-(α-Me-2F-Phe)-T(allo)-SD-((NMe)Bip(OMe))-((NMe)(2F-APPA))]
16 | 46% | 85% | 90% | 99% | 99% | Ac-H[Aib]QG[aThr][αMePhe(2-F)][aThr]SD[Bip(2'-Et-4'-OMe)][hhPhe] (also: reduced (CH2) bond between 10 and 11) [Seq. ID. No. 185: CH3CO-H-Aib-QG-T(allo)-(α-Me-2F-Phe)-T(allo)-SD-Bip(OMe)-(CH2)-(APPA)]
17 | 99% | 99% | 99% | 99% | 99% | H[Aib][Leu(5,5,5,5',5',5'-F6)]GT[αMeF]TSD[Bip(2'-Et-4'-OMe)][hhPhe] [Seq. ID. No. 230: H-Aib-(Hfl)-GT-(α-Me-Phe)-TSD-Bip(OMe)-(APPA)]

Target: human glucagon receptor (human, UniProt P47871 26-477)
Test: cell-based or functional assay

Row | inhibition of cAMP production, 1 nM | inhibition of cAMP production, 10 nM | inhibition of cAMP production, 100 nM | inhibition of cAMP production, 1 µM | inhibition of cAMP production, 10 µM | Binder
18 | 5 pmol/ml/µg prt | 2 pmol/ml/µg prt | 0 pmol/ml/µg prt | 0 pmol/ml/µg prt | 0 pmol/ml/µg prt | H[Aib][Leu(5,5,5,5',5',5'-F6)]GT[αMePhe(2-F)][aThr]SD[Bip(2'-Et-4'-OMe)][hhPhe] [Seq. ID. No. 225: H-Aib-(Hfl)-GT-(α-Me-2F-Phe)-T(allo)-SD-Bip(OMe)-(APPA)]

— patent publication US20120021972A1 (CADILA HEALTHCARE, published 2012)
